11 substances from patent publication US20200024330A1 can be followed below.

What all share (assay): cell-based or functional assay
Test [1] deals with HIV-1 MGRM-F1-022 Env (pseudovirus) (HIV-1).
The target of test [2] is HIV-1 Env of isolate MGRM-D-020 (HIV-1).
Test [3] addresses HIV-1 94UG103 envelope protein (Env) on pseudovirus (HIV-1).
Test [4] concerns the target HIV-1 Env of pseudovirus SC422661.8 (Acute), clade B (HIV-1).
Test [5] concerns the target HIV-1 94UG103 envelope glycoprotein (Env) on pseudovirus (HIV-1).
Test [6] deals with HIV-1 JRCSF envelope glycoprotein (Env) on pseudovirus (HIV-1).
Test [7] has as its target HIV-1 Env of isolate MGRM-C-013 (pseudovirus) (HIV-1 isolate MGRM-C-013, subtype C).
Test [8] concerns the target HIV-1 Env of isolate MG RM-D-003 (subtype D) (HIV-1).
Test [9] has as its target HIV-1 Env of isolate MGRM-C-014 (pseudovirus) (HIV-1 isolate MGRM-C-014, subtype C).
For test [10], the target named is HIV-1 Env of isolate MG RM-D-005 (subtype D) (HIV-1).
Test [11] concerns the target HIV-1 MGRM-Chronic-B-023 Env (pseudovirus) (HIV-1).
The target of test [12] is HIV-1 Env of isolate MGRM-C-015 (pseudovirus) (HIV-1 isolate MGRM-C-015, subtype C).
Test [13] addresses HIV-1 MGRM-Chronic-B-011 Env (pseudovirus) (HIV-1).
The target of test [14] is HIV-1 Env of isolate MG RM-AG-012 (HIV-1).
Test [15] concerns the target HIV-1 MGRM-Chronic-B-002 Env (pseudovirus) (HIV-1).
The target in test [16] is HIV-1 Env of isolate MGRM-F1-018 (HIV-1).
The target in test [17] is HIV-1 Env of isolate MGRM-C-006 (pseudovirus) (HIV-1 isolate MGRM-C-006, subtype C).
For test [18], the target named is HIV-1 Env of isolate MGRM-C-002 (pseudovirus) (HIV-1 isolate MGRM-C-002, subtype C).
Test [19] has as its target HIV-1 Env of isolate MG RM-D-013 (subtype D) (HIV-1).
Test [20] concerns the target HIV-1 Env of isolate 92UG001 (subtype D) (HIV-1).
In test [21] the target is HIV-1 Env of isolate MG RM-D-021 (subtype D) (HIV-1).
Test [22] concerns the target HIV-1 Env of isolate MGRM-F1-022 (HIV-1).
The target in test [23] is HIV-1 APV_6 Env (pseudovirus) (HIV-1).
Test [24] addresses HIV-1 93UG077 envelope glycoprotein (Env) on pseudovirus (HIV-1).
Test [25] has as its target HIV-1 JR-CSF Env E172A (HIV-1 (isolate JR-CSF)) (UniProt P20871).
The target of test [26] is HIV-1 JR-CSF Env N160K (HIV-1 (isolate JR-CSF)) (UniProt P20871).
In test [27] the target is HIV-1 93UG077 envelope glycoprotein (Env) (HIV-1).
In test [28] the target is HIV-1 Env of isolate 93IN905 (HIV-1).

The IC50 is the concentration at which inhibition is half-maximal. Low values mean greater potency, high ones weaker potency.

Substance 1496_C09 (PG9) (TCN-109) (antibody) returned an IC50 (µg/ml), pseudovirus neutralization in test [1] of 0.06 µg/mL. In test [2], this substance gave an IC50 (µg/mL), pseudovirus neutralization of 1.67 µg/mL. In test [3], this substance registered a neutralization IC50 of 0.173 µg/mL. This substance showed an IC50 (µg/ml), pseudovirus neutralization in test [4] of 0.79 µg/mL. In addition, in test [5], the IC50 (ug/ml), neutralizing activity stood at 0.31 µg/mL; the IC50 neutralization worked out at 0.31 µg/mL; the IC80, neutralization was found to be 1.95 µg/mL; the IC90 (pseudovirus neutralization) came to 3.37 µg/mL. The substance also had an IC90, neutralization in test [5] of 5.54 µg/mL. Further, the IC90 (pseudovirus neutralization) in [6] was below 2.5 ng/mL.

For 4838_L06 (PGT-121) (antibody), the IC50 (µg/mL) neutralization stood at 7.23 µg/mL in test [7]; 26.9 µg/mL in test [9]; 25.1 µg/mL in [12]; 0.017 µg/mL in test [17]; 0.019 µg/mL in test [18]. Besides, the IC50 (µg/mL), pseudovirus neutralization was 10.7 µg/mL in test [8]; above 50 µg/mL in test [10]; above 50 µg/mL in test [19]; above 50 µg/mL in test [20]; 5.33 µg/mL in [21]. The IC50, pseudovirus neutralization in [11] is 0.005 µg/mL; in test [13] it was above 50 µg/mL; in [15], 0.386 µg/mL; in test [23], 0.018 µg/mL. The neutralization IC50 in test [14] was above 50 µg/mL. In addition, the values for the IC50 in test [16] and in [22] were 0.04 µg/mL and 0.104 µg/mL, respectively.

As to 4858_P08 (PGT-123) (antibody), the IC50 (µg/mL) neutralization came to 14.9 µg/mL in test [7]; 1 µg/mL in test [9]; 13.1 µg/mL in [12]; 0.021 µg/mL in test [17]; 0.01 µg/mL in [18]. The IC50 (µg/mL), pseudovirus neutralization in [8] was 3.74 µg/mL; in test [10], above 50 µg/mL; in test [19], above 50 µg/mL; in test [20], above 50 µg/mL; in test [21], 11.1 µg/mL. Also, the results for the IC50 (ug/ml), neutralizing activity in [24] and in [5] were 0.0303 µg/mL and 0.846 µg/mL, respectively. The IC50, pseudovirus neutralization was 0.0303 µg/mL in [24]; 0.055 µg/mL in test [11]; above 50 µg/mL in test [13]; 0.846 µg/mL in [5]; 0.234 µg/mL in test [15]; 0.023 µg/mL in [23]. For the same substance, the results for the IC80, pseudovirus neutralization in [24] and in [5] were 0.143 µg/mL and 3.29 µg/mL, respectively. Besides, the IC90 (pseudovirus neutralization) in test [24] was determined as 0.35 µg/mL; in test [5], 8.56 µg/mL. The IC95, pseudovirus neutralization in [24] is 0.78 µg/mL; in test [5] it was above 10 µg/mL. In [14], this substance returned a neutralization IC50 above 50 µg/mL. Moreover, the IC50 was determined as 0.054 µg/mL in [16] and 0.075 µg/mL in [22]. In addition, the Fold IC50 increase relative to wild-type worked out at 1.1 fold in [25] and 1 fold in [26].

Turning to 4877_D15 (PGT-122) (antibody), the IC50 (µg/mL) neutralization in test [7] is 32.6 µg/mL; in test [9] it was above 50 µg/mL; in test [12] it was above 50 µg/mL; in [17], 0.018 µg/mL; in [18], 0.022 µg/mL. The IC50 (µg/mL), pseudovirus neutralization in [8] was above 50 µg/mL; in [10] it was above 50 µg/mL; in test [19] it was above 50 µg/mL; in test [20], above 50 µg/mL; in test [21], 11.7 µg/mL. Besides, the IC50 (ug/ml), neutralizing activity came to 0.191 µg/mL in test [24] and 1.46 µg/mL in [5]. In addition, the IC50, pseudovirus neutralization in test [11] was 0.01 µg/mL; in test [13], above 50 µg/mL; in test [15], 1.8 µg/mL; in [23] it was 0.019 µg/mL. This substance also displayed a neutralization IC50 in test [14] above 50 µg/mL. For the same substance, the concentration for half-maximal inhibition (IC50) in test [16] was found to be 0.563 µg/mL; in test [22], 0.277 µg/mL.

For 5123_A06 (PGT-125) (antibody), the IC50 (µg/mL) neutralization was above 50 µg/mL in test [7]; above 50 µg/mL in test [9]; above 50 µg/mL in test [12]; 0.015 µg/mL in test [17]; 0.008 µg/mL in test [18]. For the same substance, the IC50 (µg/mL), pseudovirus neutralization in [8] was 0.065 µg/mL; in test [10] it was above 50 µg/mL; in test [19], above 50 µg/mL; in test [20], above 50 µg/mL; in test [21], 0.015 µg/mL. Also, the results for the IC50 (ug/ml), neutralizing activity in test [24] and in test [5] were 0.0262 µg/mL and 0.0124 µg/mL, respectively. Also, the neutralization IC50 in test [24] was 0.0262 µg/mL; in test [14], above 50 µg/mL; in test [5], 0.0124 µg/mL. For the same substance, the neutralization IC80 came to 0.0926 µg/mL in [24] and 0.0373 µg/mL in [5]. Besides, the neutralization IC90 in [24] was 0.206 µg/mL; in test [5] it was 0.071 µg/mL. For the same substance, the values for the neutralization IC95 in test [24] and in test [5] were 0.487 µg/mL and 0.129 µg/mL, respectively. Also, the IC50, pseudovirus neutralization in test [11] is above 50 µg/mL; in [13], 3.23 µg/mL; in test [15] it was 0.064 µg/mL; in [23], 0.021 µg/mL. Moreover, the IC50 in test [16] and in test [22] was above 50 µg/mL each time. The Fold IC50 increase relative to wild-type worked out at 1.8 fold in test [25] and 0.5 fold in test [26].

As to 5141_B17 (PGT-126) (antibody), the IC50 (µg/mL) neutralization was above 50 µg/mL in test [7]; above 50 µg/mL in test [9]; 3.14 µg/mL in test [12]; 0.014 µg/mL in test [17]; 0.011 µg/mL in test [18]. For the same substance, the IC50 (µg/mL), pseudovirus neutralization is 0.021 µg/mL in test [8]; 0.792 µg/mL in test [10]; above 50 µg/mL in [19]; above 50 µg/mL in test [20]; 0.047 µg/mL in test [21]. The IC50 (ug/ml), neutralizing activity stood at 0.0256 µg/mL in test [24] and 0.0091 µg/mL in test [5]. The IC50, pseudovirus neutralization was above 50 µg/mL in test [11], 0.108 µg/mL in [13], 0.078 µg/mL in test [15] and 0.007 µg/mL in [23]. The same substance yielded a neutralization IC50 in test [14] above 50 µg/mL. Moreover, the IC50 is 14.9 µg/mL in [16] and above 50 µg/mL in test [22]. The figures for the Fold IC50 increase relative to wild-type in [25] and in [26] were 0.7 fold and 0.5 fold, respectively.

For 5145_B14 (PGT-127) (antibody), the IC50 (µg/mL) neutralization is above 50 µg/mL in test [7]; above 50 µg/mL in test [9]; above 50 µg/mL in [12]; 0.319 µg/mL in [17]; 0.057 µg/mL in [18]. In addition, the IC50 (µg/mL), pseudovirus neutralization in test [8] was 0.029 µg/mL; in [10], 6.02 µg/mL; in test [19], above 50 µg/mL; in [20] it was above 50 µg/mL; in test [21], 0.056 µg/mL. The IC50, pseudovirus neutralization in test [11] is above 50 µg/mL; in [13], 0.297 µg/mL; in test [15] it was 0.279 µg/mL; in test [23] it was 0.04 µg/mL. This substance also came in with a neutralization IC50 in test [14] above 50 µg/mL. The concentration for half-maximal inhibition (IC50) is 3.59 µg/mL in [16] and above 50 µg/mL in test [22]. Further, the values for the Fold IC50 increase relative to wild-type in test [25] and in test [26] were 2.1 fold and 0.8 fold, respectively.

PGT-121 (antibody) had an IC50 neutralization in test [27] of 0.0459 µg/mL.

In turn, PGT-122 (antibody) registered an IC50 neutralization in [27] of 0.191 µg/mL.

Take PGV04 (antibody): the IC50 (µg/mL), pseudovirus neutralization in test [2] was found to be 0.097 µg/mL.

As to VRC01 (antibody), the IC50, pseudovirus neutralization in [2] was 0.192 µg/mL; in test [16], 0.032 µg/mL; in test [22], 0.055 µg/mL. Further, the neutralization IC50 in test [28] is 0.138 µg/mL.
